Laboratory results: the supplement of paper PMC9876800

Tested on: peptide library, one residue held at a place counted from the S/T acceptor
Experiment: relative phosphorylation of the sub-library (ratio to the mean residue at this position); human; higher = residue favoured
How it was run: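 Purified recombinant kinases were reacted in 384-well plates with biotinylated degenerate peptide sub-libraries, each having one residue fixed at one position around a central Ser/Thr. The reaction mix contained 50 μM peptide plus 50 μM ATP spiked with γ-32P-ATP and ran for 90 min under kinase-specific conditions. Relative sub-library phosphorylation, taken from densitometry of phosphorimaged streptavidin membrane spots, is a ratio to the mean residue at that position.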

Chain of CAMK2D, construct: Full length (Q13557 whole entry, looked up): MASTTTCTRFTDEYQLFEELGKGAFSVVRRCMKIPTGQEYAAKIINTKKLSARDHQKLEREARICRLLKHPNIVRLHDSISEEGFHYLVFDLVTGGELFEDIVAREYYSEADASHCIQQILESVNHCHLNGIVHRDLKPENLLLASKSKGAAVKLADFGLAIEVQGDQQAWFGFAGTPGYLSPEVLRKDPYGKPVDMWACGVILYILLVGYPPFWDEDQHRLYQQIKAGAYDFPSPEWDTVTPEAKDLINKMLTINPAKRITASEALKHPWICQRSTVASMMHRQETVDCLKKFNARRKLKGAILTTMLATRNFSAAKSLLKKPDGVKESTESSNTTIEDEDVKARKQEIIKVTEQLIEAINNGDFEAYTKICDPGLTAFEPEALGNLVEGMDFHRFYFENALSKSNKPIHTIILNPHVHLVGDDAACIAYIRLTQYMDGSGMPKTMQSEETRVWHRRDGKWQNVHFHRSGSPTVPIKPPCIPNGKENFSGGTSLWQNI
Chain of SIK3, construct: aa1-307 (Q9Y2K2 1-307, looked up): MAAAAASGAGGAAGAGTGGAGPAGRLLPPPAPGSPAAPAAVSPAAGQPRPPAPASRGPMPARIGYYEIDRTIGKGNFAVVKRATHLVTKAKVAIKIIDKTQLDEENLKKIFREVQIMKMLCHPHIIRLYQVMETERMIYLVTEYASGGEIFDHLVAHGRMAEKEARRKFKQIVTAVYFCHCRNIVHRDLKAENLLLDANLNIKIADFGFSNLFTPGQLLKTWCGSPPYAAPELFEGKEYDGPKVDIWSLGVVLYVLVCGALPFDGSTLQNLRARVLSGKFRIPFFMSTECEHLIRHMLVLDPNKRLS
Chain of IKBKE, construct: Full length (Q14164 whole entry, looked up): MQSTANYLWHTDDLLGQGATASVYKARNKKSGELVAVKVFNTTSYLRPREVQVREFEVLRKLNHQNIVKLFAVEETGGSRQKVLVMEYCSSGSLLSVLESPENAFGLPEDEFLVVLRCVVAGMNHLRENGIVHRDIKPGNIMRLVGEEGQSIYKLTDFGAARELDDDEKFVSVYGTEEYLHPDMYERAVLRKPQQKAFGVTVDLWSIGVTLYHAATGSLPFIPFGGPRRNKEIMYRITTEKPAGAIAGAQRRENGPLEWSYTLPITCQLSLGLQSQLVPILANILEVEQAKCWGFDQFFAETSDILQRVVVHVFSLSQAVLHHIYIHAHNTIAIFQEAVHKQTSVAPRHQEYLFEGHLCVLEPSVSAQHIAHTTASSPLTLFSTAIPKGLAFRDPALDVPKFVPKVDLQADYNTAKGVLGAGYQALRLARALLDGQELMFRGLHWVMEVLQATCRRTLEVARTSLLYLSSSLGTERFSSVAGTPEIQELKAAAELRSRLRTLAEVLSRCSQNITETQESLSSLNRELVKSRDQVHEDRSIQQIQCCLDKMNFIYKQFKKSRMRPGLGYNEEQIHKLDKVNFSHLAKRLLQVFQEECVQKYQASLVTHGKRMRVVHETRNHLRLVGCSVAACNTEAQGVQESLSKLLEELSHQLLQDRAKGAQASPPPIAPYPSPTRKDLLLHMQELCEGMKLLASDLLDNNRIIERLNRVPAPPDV
Chain of SGK3, construct: aa119-end (Q96BR1 119-496, looked up): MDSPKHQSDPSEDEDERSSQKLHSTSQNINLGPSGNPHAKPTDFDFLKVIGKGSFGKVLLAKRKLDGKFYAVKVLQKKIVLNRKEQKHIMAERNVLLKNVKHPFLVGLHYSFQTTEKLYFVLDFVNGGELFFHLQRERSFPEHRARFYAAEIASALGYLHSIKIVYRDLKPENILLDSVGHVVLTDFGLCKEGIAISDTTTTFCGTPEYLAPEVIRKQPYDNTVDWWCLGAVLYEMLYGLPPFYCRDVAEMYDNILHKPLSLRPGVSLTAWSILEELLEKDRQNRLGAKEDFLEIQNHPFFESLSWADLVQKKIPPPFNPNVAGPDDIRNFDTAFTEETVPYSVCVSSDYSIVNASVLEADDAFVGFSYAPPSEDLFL

SIK3, construct: aa1-307 (from UniProt Q9Y2K2)
relative phosphorylation
Conditions	at +1	at +2	at +3	at +4	at -1	at -2	at -3	at -4	at -5
A fixed	0.723	1.19	0.654	0.581	1.02	1.77	0.786	1.12	1.32
D fixed	0.537	0.686	2.07	0.508	0.631	0.339	0.328	0.773	0.8
E fixed	0.747	0.583	0.643	0.374	0.495	0.272	0.353	0.768	0.692
F fixed	0.727	0.687	0.914	0.724	0.497	1.06	0.698	0.867	1.06
G fixed	0.646	0.775	0.505	0.546	2.72	1.28	0.684	1.36	1.16
H fixed	0.747	1.14	1.36	0.678	0.857	1.3	1.11	1.19	0.856
I fixed	1.12	0.923	0.555	2.59	0.364	0.507	0.399	0.637	0.861
K fixed	0.88	0.578	0.728	0.56	1.77	1.17	2.13	1.21	1.02
L fixed	1.21	0.987	0.824	4.53	0.691	0.364	0.497	0.662	1.58
M fixed	2.13	1.08	0.759	1.55	0.781	0.591	0.649	0.991	1.2
N fixed	1.29	1.4	3.64	0.597	1.25	0.65	0.57	0.895	0.733
P fixed	0.373	1.17	0.359	0.637	1.53	0.538	0.939	1.16	0.954
Q fixed	1.84	0.988	0.853	0.481	1.29	0.526	0.704	0.8	0.725
R fixed	1.1	0.956	0.688	0.459	1.4	1.45	4.8	1.73	1.5
V fixed	1.28	0.926	0.488	1.18	0.463	0.645	0.427	0.645	0.695
W fixed	0.795	1.97	0.851	0.581	0.486	2.92	1.26	1.21	0.973
Y fixed	0.877	0.961	1.1	0.42	0.756	1.62	0.658	0.987	0.868
pThr fixed	0.992	0.79	0.348	0.35	0.294	0.444	0.527	0.647	0.667
pTyr fixed	0.487	0.297	0.335	0.324	0.589	0.442	0.522	0.627	0.782

IKBKE, construct: Full length (from UniProt Q14164)
relative phosphorylation
Conditions	at +1	at +2	at +3	at +4	at -1	at -2	at -3	at -4	at -5
A fixed	0.346	1.18	0.935	0.899	0.911	0.889	1.11	1.12	1.26
D fixed	0.306	1.07	0.898	0.987	1.04	1.25	1.24	1.35	1.34
E fixed	0.22	0.933	0.928	1.01	0.97	0.821	1.2	1.23	1.27
F fixed	1.6	0.967	1.22	1.12	1.03	1.65	0.755	0.829	0.992
G fixed	0.423	0.811	0.961	0.879	0.677	0.857	1.42	1.44	1.21
H fixed	0.688	1.14	1.24	1.15	1.11	0.99	1.09	1.08	1.14
I fixed	2.51	1.06	0.853	0.964	0.899	0.528	0.632	0.796	0.742
K fixed	0.219	0.714	0.471	0.672	0.849	0.563	0.819	0.88	0.927
L fixed	3.41	1.08	0.887	0.994	1.18	1.11	0.743	0.94	0.753
M fixed	3.08	1.18	1.11	1.03	1.28	1.65	1.07	0.928	0.808
N fixed	0.323	1.04	0.9	0.854	0.916	0.916	1.12	1.01	1.06
P fixed	0.178	0.893	1.14	1.1	1.12	1.13	1.3	1.06	0.959
Q fixed	0.292	1.07	0.835	0.839	0.89	0.796	1.05	0.942	0.827
R fixed	0.248	0.931	0.626	0.721	0.955	0.62	0.968	0.845	0.965
V fixed	1.04	1.22	0.936	0.926	0.986	0.544	0.672	0.665	0.861
W fixed	1	0.876	1.33	1.65	0.94	0.934	0.826	0.955	0.922
Y fixed	1.12	0.831	1.74	1.21	1.24	1.76	0.995	0.918	0.974
pThr fixed	0.471	1.03	0.717	1.04	0.722	0.757	1.13	1.18	1
pTyr fixed	0.448	0.8	1.07	0.934	1.18	1.29	1.67	1.13	1.03

SGK3, construct: aa119-end (from UniProt Q96BR1)
relative phosphorylation
Conditions	at +1	at +2	at +3	at +4	at -1	at -2	at -3	at -4	at -5
A fixed	0.678	1.24	1.05	1.13	1.04	1.27	0.733	1.07	1.07
D fixed	0.294	0.423	0.901	0.91	0.498	0.2	0.186	0.53	0.497
E fixed	0.369	0.236	1.05	0.892	0.462	0.194	0.21	0.661	0.509
F fixed	2.98	0.836	1.09	0.843	0.672	0.609	0.352	0.749	0.836
G fixed	0.575	0.701	1.21	1.24	1.77	0.992	0.663	1.23	1.18
H fixed	0.707	1.32	1.05	1.13	1.1	1.2	1.74	1.05	1.05
I fixed	1.71	1.18	0.918	0.896	0.455	0.33	0.305	0.778	0.641
K fixed	0.807	0.987	0.995	1.08	1.71	3.22	2.08	1.73	1.94
L fixed	1.29	1.59	1.06	0.823	0.799	0.412	0.307	0.809	0.72
M fixed	1.88	1.14	1.04	0.92	1.02	0.394	0.349	0.875	0.708
N fixed	0.635	1.02	0.927	0.904	1.08	0.7	0.454	0.753	0.773
P fixed	0.361	0.56	0.835	1.39	1.06	0.558	0.688	1.09	0.991
Q fixed	0.812	0.625	0.996	0.983	0.804	0.676	0.613	0.988	0.752
R fixed	0.935	2.32	1.03	0.99	2.23	4.89	6.97	2.32	2.79
V fixed	1.5	1.05	1.04	0.894	0.614	0.417	0.404	0.953	0.955
W fixed	0.596	0.761	0.849	1.08	0.633	0.437	0.409	0.672	0.753
Y fixed	0.857	1.01	0.955	0.903	1.07	0.497	0.545	0.731	0.831
pThr fixed	0.681	0.529	0.661	0.81	0.359	0.512	0.367	0.743	0.567
pTyr fixed	0.778	0.681	0.97	0.875	0.801	0.44	0.552	0.76	0.791

CAMK2D, construct: Full length (from UniProt Q13557)
relative phosphorylation
Conditions	at +1	at +2	at +3	at +4	at -1	at -2	at -3	at -4	at -5
A fixed	0.696	0.903	1.09	1.13	1.05	1.26	0.926	1.07	0.966
D fixed	0.461	3.3	1.4	1.45	0.967	0.476	0.264	0.439	0.415
E fixed	0.719	2.31	1.46	1.41	0.674	0.625	0.316	0.691	0.378
F fixed	2.39	0.604	0.852	0.726	0.811	0.914	0.887	1.22	1.38
G fixed	0.609	1.06	1.51	1.38	1.17	1.41	0.814	1.03	0.827
H fixed	0.719	1.03	1.17	0.962	1.08	0.894	1.05	0.86	0.922
I fixed	1.93	0.599	0.699	0.705	0.699	0.547	0.575	0.946	1.11
K fixed	0.476	0.569	0.669	0.688	1.21	0.858	1.68	0.967	0.794
L fixed	1.44	0.553	0.894	0.686	0.893	0.62	0.626	1.03	1.7
M fixed	1.72	0.605	0.793	0.711	1.15	1.12	0.782	1.2	1.22
N fixed	0.705	1.17	0.981	1.03	1.23	0.956	0.689	0.707	0.597
P fixed	0.278	0.626	1.09	1.81	1.55	0.45	0.909	1.02	1.12
Q fixed	1.17	0.957	1.03	1	1.16	2.51	0.973	0.875	0.708
R fixed	0.5	0.716	0.61	0.549	0.882	1.02	3.93	1.09	1.03
V fixed	1.65	0.676	0.835	0.787	0.728	0.655	0.551	0.926	0.92
W fixed	0.636	0.619	0.977	1.1	0.7	1.74	1.19	1.66	1.68
Y fixed	0.9	0.702	0.963	0.88	1.05	0.949	0.844	1.27	1.24
pThr fixed	1.02	1.01	1.39	2.4	0.353	0.348	0.448	0.653	0.605
pTyr fixed	0.872	3.27	1.12	1.45	0.933	0.349	0.424	0.609	0.606
